# According to patent US20250043302A1, “MUTATED HYDROXYPHENYLPYRUVATE DIOXYGENASE POLYPEPTIDE, AND CODING GENE AND USE THEREOF” (BEIJING DABEINONG BIOTECHNOLOGY CO., LTD., priority 2021, published 2025):
# Residue numbers refer to the chain shown, from its start. Names and notes keep the numbering of the source.
# B1: PfHPPD-02: nucleotide sequence encoding wild-type Pseudomonas fluorescens HPPD; vector DBN11770 (nucleic acid)
# DNA: ATGGCCGATTTGTACGAGAACCCAATGGGACTCATGGGTTTCGAGTTCATTGAGTTCGCTTCCCCCACCCCAGGTACTTTGGAGCCTATTTTCGAGATCATGGGCTTCACTAAGGTTGCCACACACAGGTCTAAGAATGTGCATCTCTACCGCCAAGGAGAGATTAACCTGATCCTTAACAATGAGCCTAATAGCATCGCCTCATACTTCGCTGCTGAGCATGGTCCATCTGTTTGCGGCATGGCTTTCAGAGTGAAGGATTCACAAAAGGCCTACAACAGGGCTTTGGAGCTCGGCGCCCAGCCCATTCATATCGACACCGGACCTATGGAGCTGAATCTTCCTGCCATTAAGGGCATCGGCGGAGCTCCATTGTACCTCATTGATCGCTTCGGCGAGGGCTCCTCTATCTACGATATCGACTTCGTGTACCTGGAGGGCGTTGAGAGAAACCCTGTGGGAGCTGGTCTGAAGGTTATCGACCACCTTACTCATAATGTTTACAGAGGAAGGATGGTGTACTGGGCCAACTTCTACGAGAAGCTGTTCAATTTCCGCGAGGCTAGATACTTCGATATTAAGGGCGAGTACACAGGACTTACCTCCAAGGCCATGTCTGCTCCCGACGGTATGATTAGGATCCCATTGAACGAGGAGAGCTCAAAGGGCGCCGGACAGATTGAGGAGTTCCTCATGCAATTCAATGGTGAAGGCATCCAGCACGTTGCTTTCCTGACAGATGACCTTGTGAAGACCTGGGATGCCCTCAAGAAGATTGGCATGAGGTTCATGACCGCTCCACCTGACACTTACTACGAGATGTTGGAGGGACGCCTCCCTGATCATGGCGAGCCCGTTGACCAGCTGCAAGCTAGAGGAATCCTCCTGGATGGTTCCTCTGTGGAGGGCGACAAGAGGCTTTTGCTCCAAATTTTCAGCGAGACTCTTATGGGACCCGTGTTCTTCGAGTTCATCCAGAGGAAGGGCGATGACGGATTCGGCGAGGGCAACTTCAAGGCCCTGTTCGAGTCTATTGAGAGAGATCAGGTGAGGCGCGGCGTTCTTACAGCTGACTGA
# modifications: PfHPPD-02 Nucleotide Sequence
# notes: vector DBN11770
# B2: PfHPPDm-F372A-F383W-02: nucleotide sequence encoding Pseudomonas fluorescens HPPD with F372A+F383W; vector DBN11773 (nucleic acid)
# DNA: B1 DNA with T934G, T935C, C936T, T962G, C963G
# modifications: PfHPPDm-F372A-F383W-02 Nucleotide Sequence
# notes: vector DBN11773
# B3: PfHPPDm-F372A-02: nucleotide sequence encoding Pseudomonas fluorescens HPPD with F372A; vector DBN11771 (nucleic acid)
# DNA: B1 DNA with T934G, T935C, C936T
# modifications: PfHPPDm-F372A-02 Nucleotide Sequence
# notes: vector DBN11771
# B4: PfHPPDm-F383W-02: nucleotide sequence encoding Pseudomonas fluorescens HPPD with F383W; vector DBN11772 (nucleic acid)
# DNA: B1 DNA with T962G, C963G
# modifications: PfHPPDm-F383W-02 Nucleotide Sequence
# notes: vector DBN11772
# System: Arabidopsis thaliana T1 plants
# Assay: Mesotrione tolerance of transgenic Arabidopsis thaliana T1 plants (spray, bleached leaf area grade, damage score)
# Format: in vivo
# Set-up: Scores: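 damage score 0-100 computed as Σ(N×S)/(T×M)×100 over grades 0-3 with higher meaning more damage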
# Settings: mesotrione 52.5 g ai/ha; Arabidopsis thaliana T1 plants
# Description: T1 transformants were initially selected from the untransformed seeds using a glufosinate selection scheme. The Arabidopsis thaliana T1 plants (AsHPPD-02) into which the AsHPPD-02 nucleotide sequence was introduced, the Arabidopsis thaliana T1 plants (AsHPPDm-F372A-02) into which the AsHPPDm-F372A-02 nucleotide sequence was introduced, the Arabidopsis thaliana T1 plants (AsHPPDm-F383W-02) into which the AsHPPDm-F383W-02 nucleotide sequence was introduced, the Arabidopsis thaliana T1 plants (AsHPPDm-F372A-F383W-02) into which the AsHPPDm-F372A-F383W-02 nucleotide sequence was introduced, the Arabidopsis thaliana T1 plants (DBN11726N) into which the control recombinant expression vector DBN11726N was introduced, and the wild-type Arabidopsis thaliana plants (CK) (18 days after sowing) were sprayed respectively with topramezone at three concentrations (100 g ai/ha (four-fold field concentration, 4×), 200 g ai/ha (eight-fold field concentration, 8×), and 0 g ai/ha (water, 0×)), isoxaflutole at three concentrations (140 g ai/ha (two-fold field concentration, 2×), 280 g ai/ha (four-fold field concentration, 4×), and 0 g ai/ha (water, 0×)), and mesotrione at three concentrations (210 g ai/ha (two-fold field concentration, […]), 420 g ai/ha (four-fold field concentration, 4×), and 0 g ai/ha (water, 0×)), to determine the tolerance of Arabidopsis thaliana to the herbicides. The degree of damage caused by the herbicide was measured for each plant according to the proportion of bleached leaf area (the proportion of bleached leaf area=bleached leaf area/total leaf area×100%) 7 days after spraying (7 DAT): the case where there is basically no bleached phenotype is defined as grade 0, the case where the proportion of bleached leaf area is less than 50% is defined as grade 1, the case where the proportion of bleached leaf area is more than 50% is defined as grade 2, and the case where the proportion of bleached leaf area is 100% grade is defined as grade 3.
# According to the method as described above in point 6 of Example 1, the aforementioned Arabidopsis thaliana T1 plants and wild-type Arabidopsis thaliana plants (CK) (18 days after sowing) were sprayed respectively with topramezone at three concentrations (25 g ai/ha (one-fold field concentration, 1×). 100 g ai/ha (four-fold field concentration, 4×), and 0 g ai/ha (water, 0×)), isoxaflutole at three concentrations (35 g ai/ha (half-fold field concentration, 0.5×). 70 g ai/ha (one-fold field concentration, 1×), and 0 g ai/ha (water, 0×)), and mesotrione at three concentrations (52.5 g ai/ha (half-fold field concentration, 0.5×), 105 g ai/ha (one-fold field concentration, 1×), and 0 g ai/ha (water, 0×)) to detect the tolerance of Arabidopsis thaliana to the herbicides.
# According to the method as described above in point 6 of Example 1, the aforementioned Arabidopsis thaliana T1 plants and wild-type Arabidopsis thaliana plants (CK) (18 days after sowing) were sprayed with topramezone at three different concentrations (i.e., 100 g ai/ha (four-fold field concentration, 4×), 200 g ai/ha (eight-fold field concentration, 8×) and 0 g ai/ha (water, 0×)), isoxaflutole at three different concentrations (i.e., 140 g ai/ha (two-fold field concentration, 2×), 280 g ai/ha (four-fold field concentration, 4×) and 0 g ai/ha (water, 0×)), and mesotrione at three different concentrations (i.e., 210 g ai/ha (two-fold field concentration, 2×), 420 g ai/ha (four-fold field concentration, 4×) and 0 g ai/ha (water, 0×)) respectively to detect the herbicide tolerance of Arabidopsis thaliana. […]
Molecule,Resistance evaluation,Scores
B1,Non-resistant,100
B2,Moderately,21
B3,Moderately,31
B4,Non-resistant,77

# Same assay, conditions: mesotrione 52.5 g ai/ha; Arabidopsis thaliana T1 plants; 16 plants
Molecule,Grade 0 (classification and statistics of the grade of pesticide damage; number of plants),Grade 1 (classification and statistics of the grade of pesticide damage; number of plants),Grade 2 (classification and statistics of the grade of pesticide damage; number of plants),Grade 3 (classification and statistics of the grade of pesticide damage; number of plants)
B1,0,0,0,16
B2,7,8,1,0
B3,6,7,1,2
B4,0,0,11,5

# Same assay, conditions: mesotrione 105 g ai/ha; Arabidopsis thaliana T1 plants
Molecule,Resistance evaluation,Scores
B1,Non-resistant,100
B2,Moderately,33
B3,Poorly resistant,58
B4,Non-resistant,100

# Same assay, conditions: mesotrione 105 g ai/ha; Arabidopsis thaliana T1 plants; 16 plants
Molecule,Grade 0 (classification and statistics of the grade of pesticide damage; number of plants),Grade 1 (classification and statistics of the grade of pesticide damage; number of plants),Grade 2 (classification and statistics of the grade of pesticide damage; number of plants),Grade 3 (classification and statistics of the grade of pesticide damage; number of plants)
B1,0,0,0,16
B2,5,6,5,0
B3,0,4,12,0
B4,0,0,0,16
